Laboratory results: paper PMC3885427, “NPPB and ACAN, Two Novel SHOX2 Transcription Targets Implicated in Skeletal Development” (PLoS ONE, 2014)

Key:
Assay in all cases: two-hybrid; S. cerevisiae Y187 cotransformed with pGBT9 (GAL4 binding domain) and pACT2 (GAL4 activation domain) fusions; β-galactosidase liquid assay with CRPG as substrate; fragments and mutants given as percent of full-length or wild-type protein; empty vectors as negative controls
Settings in all cases: partners not purified
[1] = biological target: T1, SHOX(1–211), yeast two-hybrid fusion (human, UniProt O15266 1-211)
T1 construct: SHOXa, human, residues 1-211; source: yeast two-hybrid fusion (S. cerevisiae Y187)

[2] = biological target: T2, SHOX(117–274), yeast two-hybrid fusion (human, UniProt O15266 117-274)
T2 construct: SHOXa, human, residues 117-274; source: yeast two-hybrid fusion (S. cerevisiae Y187)

[3] = biological target: T3, SHOX(117–292), yeast two-hybrid fusion (human, UniProt O15266 117-292)
T3 construct: SHOXa, human, residues 117-292; source: yeast two-hybrid fusion (S. cerevisiae Y187)

[4] = biological target: T4, SHOX(178–292), yeast two-hybrid fusion (human, UniProt O15266 178-292)
T4 construct: SHOXa, human, residues 178-292; source: yeast two-hybrid fusion (S. cerevisiae Y187)
T4 sequence (looked up): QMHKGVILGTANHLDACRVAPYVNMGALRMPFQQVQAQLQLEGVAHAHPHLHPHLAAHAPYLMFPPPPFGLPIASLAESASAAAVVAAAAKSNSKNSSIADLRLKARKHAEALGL

Measured: β-galactosidase units as percent of full-length SHOX

T1 sequence (O15266 1-211): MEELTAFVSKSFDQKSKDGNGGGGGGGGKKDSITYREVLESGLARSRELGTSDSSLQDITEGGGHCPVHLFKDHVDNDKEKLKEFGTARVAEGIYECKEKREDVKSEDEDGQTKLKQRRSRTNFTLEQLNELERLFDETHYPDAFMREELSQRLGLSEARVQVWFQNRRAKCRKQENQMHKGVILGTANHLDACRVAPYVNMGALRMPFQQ
T2 sequence (O15266 117-274): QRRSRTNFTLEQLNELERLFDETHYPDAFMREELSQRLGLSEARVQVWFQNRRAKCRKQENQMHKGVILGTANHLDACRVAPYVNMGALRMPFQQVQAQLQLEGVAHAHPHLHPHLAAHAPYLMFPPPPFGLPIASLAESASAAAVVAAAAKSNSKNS

B1: SHOX2a (called SHOX2 in the paper), full-length, yeast two-hybrid fusion (natural protein)
chain: not shown
notes: SHOX2a (short stature homeobox 2, isoform a), human; full-length cDNA NM_006884.3 made from IMAGE SHOX2 clone 4122010 by removing a 70 bp region; also called wild-type SHOX2; full-length SHOX2; source: yeast two-hybrid fusion (S. cerevisiae Y187)
< 50 % of the wildtype: [1] | [2] | [3] | [4]
